Columns and labels:
αvβ6 = αvβ6 (UniProt P06756); assay: binding ELISA; murine secondary
[1] = target: rhesus monkey αvβ6 integrin on 4MBr5 cells (rhesus monkey) (UniProt H9ETF2); assay: flow cytometry titration on 4MBr5 cells; given as ED50; the text gives the cell lines the other way round than the table
[2] = target: African green monkey αvβ6 integrin on 12MBr6 cells (African green monkey); assay: flow cytometry titration on 12MBr6 cells; given as ED50
[3] = target: human αvβ6 integrin on cells (human) (UniProt P06756); assay: cell adhesion assay: SCC-14 cells to LAP, inhibition by m3G9
[4] = target: human αvβ6 integrin on cells (human) (UniProt P06756); assay: cell-based or functional assay
[5] = target: rhesus monkey αvβ6 integrin on 4MBr5 cells (rhesus monkey) (UniProt H9ETF2); assay: cell-based or functional assay
[6] = target: African green monkey αvβ6 integrin on 12MBr6 cells (African green monkey); assay: cell adhesion assay: labelled 12MBr6 cells on LAP-coated plate, inhibition by m3G9
[7] = target: human αvβ6 integrin on cells (human) (UniProt P06756); assay: cell adhesion assay: SW480β6 cells to LAP, inhibition by m3G9
[8] = target: African green monkey αvβ6 integrin on 12MBr6 cells (African green monkey); assay: flow cytometry titration on 12MBr6 cells; given as ED50; the text gives the cell lines the other way round than the table
[9] = target: rhesus monkey αvβ6 integrin on 4MBr5 cells (rhesus monkey) (UniProt H9ETF2); assay: cell adhesion assay: 4MBr5 cells to LAP; the text gives the cell lines the other way round than the table
[10] = target: rhesus monkey αvβ6 integrin on 4MBr5 cells (rhesus monkey) (UniProt H9ETF2); assay: cell adhesion assay: labelled 4MBr5 cells on LAP-coated plate, inhibition by m3G9
[11] = target: human αvβ6 integrin on cells (human) (UniProt P06756); assay: cell adhesion assay: Detroit562 cells to LAP, inhibition by m3G9
[12] = target: African green monkey αvβ6 integrin on 12MBr6 cells (African green monkey); assay: cell adhesion assay: 12MBr6 cells to LAP; the text gives the cell lines the other way round than the table
[13] = target: rhesus monkey αvβ6 integrin on 4MBr5 cells (rhesus monkey) (UniProt H9ETF2); assay: flow cytometry titration on 4MBr5 cells; given as ED50

human αvβ6 integrin on cells (human), sequence (P06756 31-1048, chain 1 of 2): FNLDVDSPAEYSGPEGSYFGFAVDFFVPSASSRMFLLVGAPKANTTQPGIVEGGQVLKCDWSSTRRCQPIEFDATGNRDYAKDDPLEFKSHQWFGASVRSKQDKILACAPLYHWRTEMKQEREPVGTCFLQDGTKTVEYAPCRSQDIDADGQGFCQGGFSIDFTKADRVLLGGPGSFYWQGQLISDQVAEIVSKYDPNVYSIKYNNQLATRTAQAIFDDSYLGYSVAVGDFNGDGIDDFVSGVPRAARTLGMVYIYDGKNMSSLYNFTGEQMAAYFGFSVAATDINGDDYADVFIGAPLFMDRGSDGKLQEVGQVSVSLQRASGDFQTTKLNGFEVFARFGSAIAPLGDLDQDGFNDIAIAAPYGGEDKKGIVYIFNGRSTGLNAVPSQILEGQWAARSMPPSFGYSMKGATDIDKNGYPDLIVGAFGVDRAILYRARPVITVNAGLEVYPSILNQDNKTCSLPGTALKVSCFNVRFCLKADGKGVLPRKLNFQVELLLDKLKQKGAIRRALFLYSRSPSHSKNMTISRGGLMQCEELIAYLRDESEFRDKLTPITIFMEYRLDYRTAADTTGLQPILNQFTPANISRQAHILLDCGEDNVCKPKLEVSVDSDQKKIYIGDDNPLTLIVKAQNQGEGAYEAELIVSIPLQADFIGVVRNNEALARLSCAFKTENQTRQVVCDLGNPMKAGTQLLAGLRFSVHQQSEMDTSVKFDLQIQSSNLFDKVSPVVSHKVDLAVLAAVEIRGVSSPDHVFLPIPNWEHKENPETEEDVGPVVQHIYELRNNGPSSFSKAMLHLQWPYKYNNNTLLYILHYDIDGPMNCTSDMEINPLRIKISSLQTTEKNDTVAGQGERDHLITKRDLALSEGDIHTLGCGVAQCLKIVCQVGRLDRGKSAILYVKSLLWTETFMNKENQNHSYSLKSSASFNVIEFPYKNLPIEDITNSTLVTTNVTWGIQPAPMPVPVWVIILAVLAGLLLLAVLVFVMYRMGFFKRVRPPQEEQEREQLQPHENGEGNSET
human αvβ6 integrin on cells (human), sequence (P18564 22-788, chain 2 of 2, further chain): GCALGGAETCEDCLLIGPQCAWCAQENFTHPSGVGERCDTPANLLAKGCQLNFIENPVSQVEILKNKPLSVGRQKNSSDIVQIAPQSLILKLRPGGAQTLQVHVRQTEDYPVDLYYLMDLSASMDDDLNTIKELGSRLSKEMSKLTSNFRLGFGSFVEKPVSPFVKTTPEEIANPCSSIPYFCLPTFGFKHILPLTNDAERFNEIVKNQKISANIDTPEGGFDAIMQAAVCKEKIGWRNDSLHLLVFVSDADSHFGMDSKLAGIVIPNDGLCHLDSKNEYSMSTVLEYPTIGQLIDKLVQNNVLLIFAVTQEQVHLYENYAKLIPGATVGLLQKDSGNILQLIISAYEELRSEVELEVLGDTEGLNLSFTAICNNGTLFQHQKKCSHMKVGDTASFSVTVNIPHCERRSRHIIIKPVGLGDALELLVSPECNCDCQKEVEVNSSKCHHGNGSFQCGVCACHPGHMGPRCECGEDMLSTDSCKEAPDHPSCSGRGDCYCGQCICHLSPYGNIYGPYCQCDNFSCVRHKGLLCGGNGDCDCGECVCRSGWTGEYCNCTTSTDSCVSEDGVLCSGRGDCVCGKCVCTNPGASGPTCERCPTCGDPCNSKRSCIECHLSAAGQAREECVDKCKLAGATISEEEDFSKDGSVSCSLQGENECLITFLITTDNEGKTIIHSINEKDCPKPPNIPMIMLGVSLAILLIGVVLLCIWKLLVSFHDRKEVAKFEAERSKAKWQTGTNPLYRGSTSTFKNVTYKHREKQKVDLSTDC
αvβ6, sequence (P06756 31-992, chain 1 of 2): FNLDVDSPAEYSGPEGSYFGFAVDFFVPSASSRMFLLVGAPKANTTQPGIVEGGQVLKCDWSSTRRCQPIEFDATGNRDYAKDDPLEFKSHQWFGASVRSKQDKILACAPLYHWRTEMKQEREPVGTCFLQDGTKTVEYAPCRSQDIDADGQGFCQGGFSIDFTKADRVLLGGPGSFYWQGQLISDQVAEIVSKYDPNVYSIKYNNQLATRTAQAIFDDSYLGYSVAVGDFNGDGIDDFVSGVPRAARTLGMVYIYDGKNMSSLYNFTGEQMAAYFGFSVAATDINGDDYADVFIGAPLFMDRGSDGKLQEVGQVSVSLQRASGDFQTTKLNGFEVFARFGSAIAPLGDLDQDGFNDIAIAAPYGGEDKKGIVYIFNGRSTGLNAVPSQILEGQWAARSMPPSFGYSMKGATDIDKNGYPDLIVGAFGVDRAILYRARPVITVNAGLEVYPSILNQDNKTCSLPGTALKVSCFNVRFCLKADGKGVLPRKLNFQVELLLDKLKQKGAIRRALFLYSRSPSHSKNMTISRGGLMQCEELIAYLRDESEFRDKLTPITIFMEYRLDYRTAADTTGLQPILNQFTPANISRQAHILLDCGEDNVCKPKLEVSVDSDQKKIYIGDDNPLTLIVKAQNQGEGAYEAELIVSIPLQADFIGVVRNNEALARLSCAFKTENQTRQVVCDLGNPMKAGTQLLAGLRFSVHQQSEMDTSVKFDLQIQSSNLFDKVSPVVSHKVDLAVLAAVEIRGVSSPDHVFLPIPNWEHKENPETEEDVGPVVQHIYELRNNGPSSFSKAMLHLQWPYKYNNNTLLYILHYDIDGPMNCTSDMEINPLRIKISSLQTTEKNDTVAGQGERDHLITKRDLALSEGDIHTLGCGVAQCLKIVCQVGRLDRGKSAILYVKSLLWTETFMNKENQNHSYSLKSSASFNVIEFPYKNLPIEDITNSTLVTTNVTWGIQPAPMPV
αvβ6, sequence (P18564 22-709, chain 2 of 2, further chain): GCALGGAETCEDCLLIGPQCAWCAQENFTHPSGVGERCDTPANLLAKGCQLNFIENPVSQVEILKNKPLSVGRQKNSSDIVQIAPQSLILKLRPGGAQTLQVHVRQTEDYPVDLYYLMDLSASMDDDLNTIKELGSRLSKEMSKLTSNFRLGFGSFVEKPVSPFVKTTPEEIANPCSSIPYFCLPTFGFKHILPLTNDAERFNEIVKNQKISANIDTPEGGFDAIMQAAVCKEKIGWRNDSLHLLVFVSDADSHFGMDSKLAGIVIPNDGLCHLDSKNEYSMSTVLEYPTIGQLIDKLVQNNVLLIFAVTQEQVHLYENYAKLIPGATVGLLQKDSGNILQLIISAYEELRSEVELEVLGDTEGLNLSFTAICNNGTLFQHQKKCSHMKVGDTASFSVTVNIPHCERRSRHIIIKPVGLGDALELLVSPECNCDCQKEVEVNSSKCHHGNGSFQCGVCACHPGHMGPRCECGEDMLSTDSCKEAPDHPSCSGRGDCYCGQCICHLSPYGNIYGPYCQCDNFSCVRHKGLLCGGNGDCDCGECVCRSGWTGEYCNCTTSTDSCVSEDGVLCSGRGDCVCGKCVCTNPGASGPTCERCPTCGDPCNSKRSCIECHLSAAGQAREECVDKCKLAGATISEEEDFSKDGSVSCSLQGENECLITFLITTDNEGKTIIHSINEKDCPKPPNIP

EC50 (αvβ6)	EC50 [1]	EC50 [2]	IC50 [3]	Coculture IC50, µg/mL (TGFβ activation by SW480β6 cells, TMLC luciferase reporter cells) [4]	IC50, coculture assay (SW480β6) [4]	Coculture IC50, µg/mL (TGFβ activation by 4MBr5 cells, TMLC luciferase reporter cells) [5]	IC50, coculture assay (4MBr5) [5]	IC50 [6]	IC50 [7]	EC50 [8]	IC50 [9]	IC50 [10]	IC50 [11]	IC50 [12]	EC50 [13]	Substance
0.021 mg/L	–	–	–	–	–	–	–	–	–	–	–	–	–	–	–	m3G9 (murine secondary)
–	0.38 mg/L	0.38 mg/L	0.16 mg/L	0.37 µg/mL	0.24 mg/L	0.31 µg/mL	0.4 mg/L	0.29 mg/L	0.03 mg/L	0.3 mg/L	0.29 mg/L	0.22 mg/L	0.04 mg/L	0.22 mg/L	0.3 mg/L	murine monoclonal antibody 6.3G9

— patent US20110305629A1
